The nature of the data set: protein stability index of a GFP-peptide fusion (GPS, HEK-293T) (PSI 1-6); higher = more stable. The following applies: c terminus: a fixed tail appended.

± gives the standard deviation.
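Note: 24-mer peptide tiles fused after GFP, lentivirally expressed, FACS-sorted into six equal bins by GFP/DsRed ratio, decoded by Illumina sequencing, PSI is the read-weighted mean bin number.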

As to FYMEEGVPYCERDYEKMFGTKCHG [PDLIM7], the protein stability index runs as follows: (treatment: DMSO) 2.78 ± 0.4; (treatment: MLN4924 1 uM, 8 h) 3.19 ± 0.31.
For FYTLSPNSHFSLNVKTLKDGKPFP [PCDHGC5] the same measures were 2.6 ± 0.21 and 2.62 ± 0.24.
On the same counts, the results for GAAEPITVKFANNPSQKTGQALLT [ELAVL3] are 4.1 ± 0.3 and 4.39 ± 0.055.
On the same counts, the results for GAAESPYAYSNGIDYKTTTILLDG [RAB40C] are 3.7 ± 0.39 and 3.67 ± 0.39.
Regarding GAHTLVNHGYAEPAAGRELPPDMT [KCNA3], the protein stability index is, setting by setting: (treatment: DMSO) 4.87 ± 0.13; (treatment: MLN4924 1 uM, 8 h) 4.73 ± 0.17.
As for GAILTTMLATRNFSGGKSGGNKKS [CAMK2A], the protein stability index was found to be 3.67 ± 0.24 (treatment: DMSO) and 3.63 ± 0.41 (treatment: MLN4924 1 uM, 8 h).
As to GATWRTSGLLEELNAEAGHLDPGF [C18orf25], the protein stability index runs as follows: (treatment: DMSO) 3.98 ± 0.43; (treatment: MLN4924 1 uM, 8 h) 3.75 ± 0.52.
Regarding GAVVLGAESHASKDVAIDMMDSRT [STX5], the protein stability index came out at 4.67 ± 0.2 (treatment: DMSO) and 4.64 ± 0.44 (treatment: MLN4924 1 uM, 8 h).
As to GCDRIIGSKKKFDKCMVCGGDGSG [ADAMTS4], the protein stability index is, setting by setting: (treatment: DMSO) 3.21 ± 0.34; (treatment: MLN4924 1 uM, 8 h) 4.053 ± 0.022.
On the same counts, the results for GCYAYRQNPEAIAAAAMYTFLPDN [MYORG] are 2.61 ± 0.34 and 2.46 ± 0.29.
Take GDRPRWQRLLGEDKFQWLAGLAPP [ANKRD9]: the protein stability index reads like this: (treatment: DMSO) 2.85 ± 0.35; (treatment: MLN4924 1 uM, 8 h) 2.7 ± 0.3.
On the same counts, the results for GEAAAGGAAEEARRLEQRWGFGLE [ACBD3] are 4.49 ± 0.38 and 4.43 ± 0.38.
On the same counts, the results for GEGVERELFVREPTGRLPALVRWW [MYORG] are 2.91 ± 0.075 and 2.77 ± 0.34.
For GEITQHNVTELLRDVAAWGRARAT [DNAAF3] the same measures were 3.11 ± 0.35 and 3.53 ± 0.5.
Turning to GELSPEQPSFEPTKNKELTDEFRE [FADS1], the protein stability index is 5.52 ± 0.33 (treatment: DMSO) and 5.38 ± 0.18 (treatment: MLN4924 1 uM, 8 h).
For GETYCEEHGEKIYFFCENDAEFLC [TRIM15] the same measures were 3.22 ± 0.26 and 3.33 ± 0.44.
For GFGDEDTGLELIAEESNPPLQDFP [MIA2] the same measures were 5.4 ± 0.34 and 5.23 ± 0.069.
Consider GFWQLPPPATQNTFGNSTLALGPG [PLAGL1], for which the protein stability index is 3.17 ± 0.15 (treatment: DMSO) and 3.29 ± 0.35 (treatment: MLN4924 1 uM, 8 h).
For GGGFAGGDGLLVGSEKVTMQNLND [KRT16] the same measures were 4.72 ± 0.34 and 4.73 ± 0.1.
On the same counts, the results for GGLQKMVALLNKTNVKFLAITTDC [CTNNB1] are 2.73 ± 0.61 and 2.45 ± 0.46.
For GGMNHSAFPQTPFKTGNSTATCTT [KCNA3] the same measures were 4.27 ± 0.24 and 4.4 ± 0.4.
For GGPGGRGPWSCENFNPLLVAGGVA [CEND1], the protein stability index is, setting by setting: (treatment: DMSO) 2.82 ± 0.23; (treatment: MLN4924 1 uM, 8 h) 2.72 ± 0.18.
For GGPSSPPSDPPAMSPGPLDALSSP [C2CD2L] the same measures were 5.23 ± 0.26 and 5.27 ± 0.14.
In turn, GGYFKAHIKFPIDYPYSPPTFRFL [UBE2R2] gave a protein stability index (treatment: DMSO) of 2.61 ± 0.96 and a protein stability index (treatment: MLN4924 1 uM, 8 h) of 2.71 ± 0.52.
Regarding GHPFFEGVDWEHIRERPAAIPIEI [STK38L], the protein stability index runs as follows: (treatment: DMSO) 2.46 ± 0.39; (treatment: MLN4924 1 uM, 8 h) 2.84 ± 0.38.
Take GKAFSQNSGLINHQRIHTGEKPYE [ZNF24]: the protein stability index came out at 3.86 ± 0.19 (treatment: DMSO) and 4.33 ± 0.42 (treatment: MLN4924 1 uM, 8 h).
On the same counts, the results for GKHPKDKTEDENKQSFLDGGKGHH [TOR1AIP2] are 5.4 ± 0.34 and 5.55 ± 0.22.
On the same counts, the results for GKVEAQHILASAPTDRNLCHFQAL [PYCR3] are 2.7 ± 0.25 and 3.04 ± 0.31.
Turning to GLKPGPEDGPGKEEAPELDEAELD [SERTAD1], the protein stability index by setting is: (treatment: DMSO) 5.67 ± 0.34; (treatment: MLN4924 1 uM, 8 h) 5.83 ± 0.064.
In the case of GLLICLPREQAARFCSEIKSSKYG [SEPHS2], the protein stability index was 2.04 ± 0.28 (treatment: DMSO) and 2.17 ± 0.55 (treatment: MLN4924 1 uM, 8 h).
For GLPLAASMQEDEQSGRDLQQYQSQ [SEC22B] the same measures were 5.34 ± 0.24 and 5.43 ± 0.3.
For GLRLCRPKAKAKAKAKAKDQTKAQ [RPL29] the same measures were 3.91 ± 0.23 and 4.16 ± 0.34.
As for GNAHYQRADFVLAANSYDLAIKAI [FKBP8], the protein stability index runs as follows: (treatment: DMSO) 2.5 ± 0.079; (treatment: MLN4924 1 uM, 8 h) 2.43 ± 0.33.
Take GNKSDLKQLRQVTKEEGLALAREF [RIT1]: the protein stability index was 4.31 ± 0.25 (treatment: DMSO) and 4.26 ± 0.12 (treatment: MLN4924 1 uM, 8 h).
For GPARSGFRLETLAGLRSRRLKQPK [MIR22HG] the same measures were 3.87 ± 0.24 and 4.14 ± 0.13.
For GPAVVCGTPTSHVYMFKNGSGDSG [LYSMD4] the same measures were 3.7 ± 0.12 and 3.65 ± 0.33.
For GPGDEVARGIAGEKFDIVKKWGIN [ARFIP2] the same measures were 4 ± 0.17 and 4.2 ± 0.046.
As to GQILELPWKEETFLVLQSLLERQV [FANCE], the protein stability index came to 1.9 ± 0.35 (treatment: DMSO) and 2.1 ± 0.34 (treatment: MLN4924 1 uM, 8 h).
On the same counts, the results for GQREPGSLSRNNSFRRNVGRVLLA [FBXO34] are 3.11 ± 0.26 and 3.46 ± 0.21.
Take GQRIRRGSIGVWHYICPRLGGIGF [SLC6A17]: the protein stability index is, setting by setting: (treatment: DMSO) 2.23 ± 0.27; (treatment: MLN4924 1 uM, 8 h) 2.42 ± 0.2.
Regarding GRAVEHAMFLGDAAAHWYGGAEMR [MYORG], the protein stability index by setting is: (treatment: DMSO) 2.87 ± 0.34; (treatment: MLN4924 1 uM, 8 h) 3.14 ± 0.27.
On the same counts, the results for GRDDLESFQLEISGFLKEMACPYS [FAM98B] are 2.29 ± 0.3 and 2.67 ± 0.75.
For GRNFILFIIFGTMEEMQNKAVVFF [HACD3] the same measures were 2.94 ± 1.4 and 2.36 ± 1.2.
For GRQPALRPHVHKQTEKTTRVRTVL [ISL2], the protein stability index runs as follows: (treatment: DMSO) 3.66 ± 0.1; (treatment: MLN4924 1 uM, 8 h) 3.88 ± 0.17.
For GSAVEVQTYQPPWKALSEFALQSD [ISL2] the same measures were 3.61 ± 0.4 and 3.73 ± 0.39.
For GSLDIMKMLLMYCAKMEKDGYGMT [FEM1C], the protein stability index by setting is: (treatment: DMSO) 3.22 ± 0.46; (treatment: MLN4924 1 uM, 8 h) 2.58 ± 0.7.
For GSLILPPGPGGTMKRHSSRDAAGK [FCHO1] the same measures were 4.68 ± 0.2 and 4.56 ± 0.2.
Take GSQDGHFVLSCSYDGLDCQARQFR [SCNN1D]: the protein stability index is, setting by setting: (treatment: DMSO) 2.52 ± 0.12; (treatment: MLN4924 1 uM, 8 h) 2.71 ± 0.29.
Sequence GSRCLKTFEVPEENTAETITRVLY [ZBED1] came in with a protein stability index (treatment: DMSO) of 2.66 ± 0.47 and a protein stability index (treatment: MLN4924 1 uM, 8 h) of 2.64 ± 0.18.
For GSSDHSVIMWDIGGRKGTAIELQG [WDFY2] the same measures were 2.84 ± 0.43 and 2.83 ± 0.2.
Consider GSSSLGFTSSPSPFSSSSPENVED [FCHO1], for which the protein stability index runs as follows: (treatment: DMSO) 5.38 ± 0.2; (treatment: MLN4924 1 uM, 8 h) 5.29 ± 0.19.
For GTCALWDVESGQLLQSFHGHGADV [GNB5], the protein stability index runs as follows: (treatment: DMSO) 2.75 ± 0.28; (treatment: MLN4924 1 uM, 8 h) 2.99 ± 0.51.
GTPGTPSYPRTPHTPGTPKSAILV [MAP2] had a protein stability index (treatment: DMSO) of 3.1 ± 0.12 and a protein stability index (treatment: MLN4924 1 uM, 8 h) of 3.24 ± 0.35.
On the same counts, the results for GTPGYLSPEVLRKDPYGKPVDLWA [CAMK2A] are 3.29 ± 0.39 and 3.16 ± 0.29.
As to GTVVALLNVHDLDSEQNGQVTCSI [PCDHGA10], the protein stability index turned out to be 2.23 ± 0.34 (treatment: DMSO) and 2.58 ± 0.24 (treatment: MLN4924 1 uM, 8 h).
In the case of GVEPSPSPIKPGDIKRGIPNYEFK [UFD1], the protein stability index reads like this: (treatment: DMSO) 4.25 ± 0.24; (treatment: MLN4924 1 uM, 8 h) 4.24 ± 0.24.
For GVLEAPDTQVNPVGSVSVDCGPSR [FBXO34] the same measures were 5.03 ± 0.31 and 4.89 ± 0.6.
On the same counts, the results for GVLTRKTHADMDGKRTPRGRRGWK [PSD2] are 4.47 ± 0.29 and 4.53 ± 0.29.
On the same counts, the results for GVQKMNSKTVTSTMLGVFREDPKT [GCH1] are 4.43 ± 0.45 and 4.05 ± 0.33.
As for GWCSGDAISSVERYDPQTNEWRMV [KLHL20], the protein stability index by setting is: (treatment: DMSO) 2.84 ± 0.24; (treatment: MLN4924 1 uM, 8 h) 2.95 ± 0.34.
For HEEFFPAFQAFTNDLLEILEIDDL [CEP70] the same measures were 3.48 ± 0.21 and 3.43 ± 0.37.
For HELLLGSLQQQHQADLELIESAHR [FBF1] the same measures were 4.66 ± 0.24 and 4.35 ± 0.21.
HGHYSMHCLHSAGHSQPDGAYSSA [DLX1] came in with a protein stability index (treatment: DMSO) of 3.48 ± 0.27 and a protein stability index (treatment: MLN4924 1 uM, 8 h) of 3.47 ± 0.23.
On to HGPFSGFPGPQEHTQVLPDVRLLP [DYRK1B], for which the protein stability index turned out to be 3.57 ± 0.099 (treatment: DMSO) and 3.63 ± 0.21 (treatment: MLN4924 1 uM, 8 h).
For HHHHGRDFLLRAASFDVCESVDEA [RHOBTB2] the same measures were 4.04 ± 0.38 and 4.25 ± 0.27.
On the same counts, the results for HHLFPTMPRHNYHKVAPLVQSLCA [FADS1] are 2.4 ± 0.32 and 2.51 ± 0.17.
For HHRYDDLVRTLYKVQNECPGITRV [CPN1] the same measures were 2.69 ± 0.34 and 2.67 ± 0.098.
For the sequence HILKKYYGNGMRKSPEMPVILEVS [RTP4], the protein stability index (treatment: DMSO) is 1.99 ± 0.51 and the protein stability index (treatment: MLN4924 1 uM, 8 h) is 2.2 ± 0.37.
For HKQDGKAGLFSQEQYERNKSSSSS [TMEM40] the same measures were 5.3 ± 0.35 and 5.31 ± 0.15.
For HKRRRRKQKVSRIERSSSFSSITD [DVL3] the same measures were 4.28 ± 0.096 and 4.55 ± 0.092.
For HLELTRKLQDLIKDVLRYGEEQLK [FCHO1], the protein stability index by setting is: (treatment: DMSO) 2.95 ± 0.52; (treatment: MLN4924 1 uM, 8 h) 2.71 ± 0.69.
For HLTSVTSESEQEFLYKTAGGLIYW [CD207] the same measures were 2.33 ± 0.28 and 2.63 ± 0.33.
For the setting “treatment: MLN4924 1 uM, 8 h”, HPFFFALGKILSVELGKQKKKYMP [FADS1] yielded a protein stability index of 1.89 ± 0.5.

The values are drawn from the supplement of paper PMC10567573.
